In the supplement of paper PMC10266784:

B1: library; numbered along this chain (parent)
chain: MAAAAAAAAEQQSSNGPVKKSMREKAVERRSVNKEHNSNFKAGYIPIDEDRLHKTGLRGRKGNLAICVIILLFILAVINLIITLVIWAVIRIGPNGCDSMEFHESGLLRFKQVSDMGVIHPLYKSTVGGRRNENLVITGNNQPIVFQQGTTKLSVENNKTSITSDIGMQFFDPRTQNILFSTDYETHEFHLPSGVKSLNVQKASTERITSNATSDLNIKVDGRAIVRGNEGVFIMGKTIEFHMGGNMELKAENSIILNGSVMVSTTRLPSSSSGDQLGSGDWVRYKLCMCADGTLFKVQVTSQNMGCQISDNPCGNTH

Variants of: B1
Experiment: SGCB cell-surface expression functional score (HA stain, bin4 vs bin1, normalised to synonymous) (log10 ratio); higher = more cell-surface SGCB (functional)
Procedure: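 Deep mutational scan of full-length human SGCB (YFP-SGCB-HA, NNN codon sublibraries A-F) delivered by lentivirus at low MOI into ADG-HEK293 cells stably expressing SGCA, SGCD and SGCG. YFP-positive cells were stained for surface HA on unpermeabilized cells and FACS-sorted into bins. The functional score is log10(frequency in high bin 4 / frequency in low bin 1), normalised per chunk so that synonymous variants have mean 0 and SD 0.5. Scores are the median over codons and over duplicate biological replicates; scores below -0.5 are called non-functional. Scale: negative means deleterious.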

First: A4E
Second: A4T
The “SGCB cell-surface expression functional score (log10)” value of the first is lower: -0.43 for the first, 0.36 for the second.

First: A4N
Second: A4I
The “SGCB cell-surface expression functional score (log10)” value of the first is lower: -0.48 for the first, 0.3 for the second.

Going from A4S to A4F, the “SGCB cell-surface expression functional score (log10)” value falls from 0.05 to -0.21.

A4V and A4R are within 0.2 log units of each other in “SGCB cell-surface expression functional score (log10)” value: -0.06 for the first, -0.11 for the second.

Compared with A4Y, A4Q is lower in “SGCB cell-surface expression functional score (log10)” value: -0.14 for the first, -0.48 for the second.

A4D and A4C are within 0.2 log units of each other in “SGCB cell-surface expression functional score (log10)” value: 0.21 for the first, 0.4 for the second.

A4L and A4H are within 0.2 log units of each other in “SGCB cell-surface expression functional score (log10)” value: 0.45 for the first, 0.44 for the second.

Going from A4W to A4G, the “SGCB cell-surface expression functional score (log10)” value rises from -0.07 to 0.26.

Going from A4K to A4M, the “SGCB cell-surface expression functional score (log10)” value rises from -0.03 to 0.19.

Going from A4P to A5P, the “SGCB cell-surface expression functional score (log10)” value falls from 0.44 to -0.19.

Compared with A5W, A5R is lower in “SGCB cell-surface expression functional score (log10)” value: 0.56 for the first, -0.2 for the second.

A5L and A5Y are within 0.2 log units of each other in “SGCB cell-surface expression functional score (log10)” value: 0.24 for the first, 0.39 for the second.

Compared with A5F, A5I is lower in “SGCB cell-surface expression functional score (log10)” value: 0.61 for the first, 0.29 for the second.

A5T and A5Q are within 0.2 log units of each other in “SGCB cell-surface expression functional score (log10)” value: 0.22 for the first, 0.33 for the second.

A5G and A5S are within 0.2 log units of each other in “SGCB cell-surface expression functional score (log10)” value: 0.2 for the first, 0.1 for the second.

A5K and A5N are within 0.2 log units of each other in “SGCB cell-surface expression functional score (log10)” value: 0.07 for the first, -0.07 for the second.

A5E and A5H are within 0.2 log units of each other in “SGCB cell-surface expression functional score (log10)” value: -0.03 for the first, 0.12 for the second.

A5C and A5D are within 0.2 log units of each other in “SGCB cell-surface expression functional score (log10)” value: 0.11 for the first, -0.01 for the second.

First: A5V
Second: A5M
The “SGCB cell-surface expression functional score (log10)” value of the first is lower: 0.01 for the first, 0.25 for the second.

First: A7S
Second: A7H
The “SGCB cell-surface expression functional score (log10)” value of the first is higher: -0.09 for the first, -0.54 for the second.

A7D and A7M are within 0.2 log units of each other in “SGCB cell-surface expression functional score (log10)” value: 0.19 for the first, 0.23 for the second.

A7V and A7N are within 0.2 log units of each other in “SGCB cell-surface expression functional score (log10)” value: 0.16 for the first, 0.06 for the second.

A7G and A7R are within 0.2 log units of each other in “SGCB cell-surface expression functional score (log10)” value: 0.2 for the first, 0.24 for the second.

A7P and A7Q are within 0.2 log units of each other in “SGCB cell-surface expression functional score (log10)” value: 0.29 for the first, 0.41 for the second.

A7T and A7I are within 0.2 log units of each other in “SGCB cell-surface expression functional score (log10)” value: 0.27 for the first, 0.29 for the second.

A7Y and A7C are within 0.2 log units of each other in “SGCB cell-surface expression functional score (log10)” value: 0.05 for the first, 0.18 for the second.

First: A7E
Second: A7W
The “SGCB cell-surface expression functional score (log10)” value of the first is lower: -0.36 for the first, 0.57 for the second.

Going from A7K to A7F, the “SGCB cell-surface expression functional score (log10)” value falls from 0.48 to 0.02.

A7L and Q12N are within 0.2 log units of each other in “SGCB cell-surface expression functional score (log10)” value: 0.13 for the first, 0.01 for the second.

Compared with Q12K, Q12A is higher in “SGCB cell-surface expression functional score (log10)” value: 0.02 for the first, 0.29 for the second.

Q12E and Q12P are within 0.2 log units of each other in “SGCB cell-surface expression functional score (log10)” value: 0 for the first, 0.06 for the second.

First: Q12H
Second: Q12C
The “SGCB cell-surface expression functional score (log10)” value of the first is higher: 0.03 for the first, -0.19 for the second.

Compared with Q12D, Q12S is higher in “SGCB cell-surface expression functional score (log10)” value: -0.24 for the first, 0.04 for the second.

First: Q12L
Second: Q12F
The “SGCB cell-surface expression functional score (log10)” value of the first is higher: 0.03 for the first, -0.27 for the second.

Going from Q12R to Q12I, the “SGCB cell-surface expression functional score (log10)” value falls from 0.29 to -0.43.

Compared with Q12M, Q12G is higher in “SGCB cell-surface expression functional score (log10)” value: -0.09 for the first, 0.12 for the second.

First: Q11I
Second: Q11L
The “SGCB cell-surface expression functional score (log10)” value of the first is lower: -0.5 for the first, 0.04 for the second.

Going from Q11P to Q11G, the “SGCB cell-surface expression functional score (log10)” value rises from 0.41 to 0.64.

Q11K and Q11V are the same in “SGCB cell-surface expression functional score (log10)” value: -0.03 for the first, -0.03 for the second.

Going from Q11H to Q11A, the “SGCB cell-surface expression functional score (log10)” value falls from 0.19 to -0.04.

Compared with Q11N, Q11W is higher in “SGCB cell-surface expression functional score (log10)” value: 0.3 for the first, 0.61 for the second.

Q11R and Q11E are within 0.2 log units of each other in “SGCB cell-surface expression functional score (log10)” value: 0.14 for the first, 0.17 for the second.

Q11F and Q11M are within 0.2 log units of each other in “SGCB cell-surface expression functional score (log10)” value: 0.07 for the first, -0.03 for the second.

First: Q11T
Second: Q11S
The “SGCB cell-surface expression functional score (log10)” value of the first is lower: -0.02 for the first, 0.39 for the second.

First: Q11C
Second: Q11Y
The “SGCB cell-surface expression functional score (log10)” value of the first is higher: 0.65 for the first, 0.17 for the second.

Compared with Q11D, E10F is lower in “SGCB cell-surface expression functional score (log10)” value: 0.04 for the first, -0.46 for the second.

E10A and E10P are within 0.2 log units of each other in “SGCB cell-surface expression functional score (log10)” value: 0.17 for the first, 0.05 for the second.

Compared with E10I, E10R is lower in “SGCB cell-surface expression functional score (log10)” value: 0.41 for the first, 0.14 for the second.

E10C and E10D are within 0.2 log units of each other in “SGCB cell-surface expression functional score (log10)” value: 0.47 for the first, 0.45 for the second.

Going from E10Y to E10V, the “SGCB cell-surface expression functional score (log10)” value falls from 0.17 to -0.1.

Compared with E10Q, E10W is lower in “SGCB cell-surface expression functional score (log10)” value: 0.15 for the first, -0.16 for the second.

First: E10G
Second: E10H
The “SGCB cell-surface expression functional score (log10)” value of the first is higher: 0.28 for the first, 0.08 for the second.

E10L and E10M are within 0.2 log units of each other in “SGCB cell-surface expression functional score (log10)” value: 0.02 for the first, -0.03 for the second.

First: E10N
Second: E10S
The “SGCB cell-surface expression functional score (log10)” value of the first is higher: 0.39 for the first, 0.03 for the second.

E10K and E10T are within 0.2 log units of each other in “SGCB cell-surface expression functional score (log10)” value: 0.18 for the first, 0.27 for the second.

First: A6K
Second: A6S
The “SGCB cell-surface expression functional score (log10)” value of the first is lower: -0.2 for the first, 0.25 for the second.

Going from A6H to A6R, the “SGCB cell-surface expression functional score (log10)” value rises from -0.23 to 0.

Going from A6D to A6E, the “SGCB cell-surface expression functional score (log10)” value falls from 0.24 to -0.14.

Compared with A6M, A6C is lower in “SGCB cell-surface expression functional score (log10)” value: 0.13 for the first, -0.11 for the second.

Going from A6V to A6Q, the “SGCB cell-surface expression functional score (log10)” value rises from 0.22 to 0.69.

Compared with A6Y, A6P is lower in “SGCB cell-surface expression functional score (log10)” value: 0.61 for the first, 0.11 for the second.

Going from A6N to A6W, the “SGCB cell-surface expression functional score (log10)” value falls from 0.26 to -0.46.

Going from A6L to A6T, the “SGCB cell-surface expression functional score (log10)” value rises from -0.21 to 0.07.

A6I and A6F are within 0.2 log units of each other in “SGCB cell-surface expression functional score (log10)” value: 0.36 for the first, 0.37 for the second.

A6G and A9R are within 0.2 log units of each other in “SGCB cell-surface expression functional score (log10)” value: 0.15 for the first, 0.3 for the second.

A9I and A9P are within 0.2 log units of each other in “SGCB cell-surface expression functional score (log10)” value: 0.35 for the first, 0.17 for the second.

Going from A9M to A9S, the “SGCB cell-surface expression functional score (log10)” value falls from 0.67 to 0.12.

A9H and A9L are within 0.2 log units of each other in “SGCB cell-surface expression functional score (log10)” value: 0.18 for the first, 0.19 for the second.

A9Q and A9T are within 0.2 log units of each other in “SGCB cell-surface expression functional score (log10)” value: 0.46 for the first, 0.39 for the second.

Compared with A9N, A9E is higher in “SGCB cell-surface expression functional score (log10)” value: -0.39 for the first, 0.28 for the second.

First: A9G
Second: A9F
The “SGCB cell-surface expression functional score (log10)” value of the first is higher: 0.37 for the first, 0.04 for the second.

Going from A9W to A9D, the “SGCB cell-surface expression functional score (log10)” value rises from -0.24 to 0.38.

First: A9V
Second: A9Y
The “SGCB cell-surface expression functional score (log10)” value of the first is lower: 0.15 for the first, 0.45 for the second.

Going from A9K to A9C, the “SGCB cell-surface expression functional score (log10)” value rises from 0.19 to 0.54.

A8P and A8G are within 0.2 log units of each other in “SGCB cell-surface expression functional score (log10)” value: 0.35 for the first, 0.3 for the second.

First: A8L
Second: A8S
The “SGCB cell-surface expression functional score (log10)” value of the first is lower: -0.18 for the first, 0.05 for the second.

Going from A8F to A8C, the “SGCB cell-surface expression functional score (log10)” value rises from -0.02 to 0.27.

Going from A8Y to A8M, the “SGCB cell-surface expression functional score (log10)” value falls from 0.51 to -0.04.

Going from A8N to A8K, the “SGCB cell-surface expression functional score (log10)” value rises from 0.12 to 0.32.

A8I and A8D are within 0.2 log units of each other in “SGCB cell-surface expression functional score (log10)” value: 0.15 for the first, 0.14 for the second.

Going from A8R to A8Q, the “SGCB cell-surface expression functional score (log10)” value falls from 0.09 to -0.13.

Compared with A8W, A8V is lower in “SGCB cell-surface expression functional score (log10)” value: 1.01 for the first, 0.43 for the second.

Going from A8E to A8H, the “SGCB cell-surface expression functional score (log10)” value falls from 0.48 to 0.25.

In the case of A8T, the “SGCB cell-surface expression functional score (log10)” value is reported as 0.33.
